Results published in patent US20240360201A1 (BIOCYTOGEN PHARMACEUTICALS BEIJING, published 2024).
Each block holds one binder with its values, some of them ahead of it.

Tests used:
[1] = target: T1, 6×Histidine-tagged human PD-L1 protein (hPDL1-His) (human, UniProt Q9NZQ7 19-238); assay: SPR Biacore T200; binder captured on protein A chip, target as analyte
T1 construct: also called hPL1-His; His-tagged human PD-L1

[2] = target: T1, 6×Histidine-tagged human PD-L1 protein …; assay: as above; remark: listed apart in the source
[3] = target: T1, 6×Histidine-tagged human PD-L1 protein …; assay: SPR Biacore T200; binder captured on protein A chip, hPL1-His 1.5625-200 nM as analyte
Experimental: Dissociation was monitored for 400 seconds. The chip was regenerated after the last injection of each titration with Glycine (pH 2.0, 30 μL/min for 12 seconds). As a person of ordinary skill in the art would understand, the same method with appropriate adjustments for parameters (e.g., fusion protein concentration) was performed for each tested fusion protein.
Kinetic association rates (kon) and dissociation rates (koff) were obtained simultaneously by fitting the data globally to a 1:1 Langmuir binding model (Karlsson, R. Roos, H. Fagerstam, L. Petersson, B., 1994. Methods Enzymology 6. 99-110) using Biacore™ T200 Evaluation Software 3.0. Affinities were calculated from the quotient of the kinetic rate constants (KD=koff/kon). […] Non-specific effects were not observed.

[4] = target: T2, His-tagged recombinant mouse IL12RB2 protein (mIL12R-B2-His) (mouse, UniProt P97378 24-637, limits assumed); assay: SPR Biacore T200; binder captured on protein A chip, target as analyte
T2 construct: bought
T2 sequence (looked up): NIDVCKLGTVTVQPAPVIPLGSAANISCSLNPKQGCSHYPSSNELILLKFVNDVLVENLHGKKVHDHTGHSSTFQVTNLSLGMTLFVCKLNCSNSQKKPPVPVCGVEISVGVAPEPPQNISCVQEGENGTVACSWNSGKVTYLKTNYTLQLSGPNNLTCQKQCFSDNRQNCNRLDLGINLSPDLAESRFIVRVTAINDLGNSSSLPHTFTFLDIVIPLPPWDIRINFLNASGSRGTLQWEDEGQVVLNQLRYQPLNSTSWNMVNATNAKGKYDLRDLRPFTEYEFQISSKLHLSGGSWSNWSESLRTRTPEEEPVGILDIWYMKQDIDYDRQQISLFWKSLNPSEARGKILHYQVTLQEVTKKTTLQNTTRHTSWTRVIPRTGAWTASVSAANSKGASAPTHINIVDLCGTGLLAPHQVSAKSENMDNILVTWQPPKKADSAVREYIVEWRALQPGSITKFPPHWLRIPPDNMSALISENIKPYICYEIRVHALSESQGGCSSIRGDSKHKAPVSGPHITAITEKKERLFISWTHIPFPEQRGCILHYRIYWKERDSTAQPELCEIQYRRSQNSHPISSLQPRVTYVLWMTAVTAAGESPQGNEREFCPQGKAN

T1 sequence (Q9NZQ7 19-238 limits assumed): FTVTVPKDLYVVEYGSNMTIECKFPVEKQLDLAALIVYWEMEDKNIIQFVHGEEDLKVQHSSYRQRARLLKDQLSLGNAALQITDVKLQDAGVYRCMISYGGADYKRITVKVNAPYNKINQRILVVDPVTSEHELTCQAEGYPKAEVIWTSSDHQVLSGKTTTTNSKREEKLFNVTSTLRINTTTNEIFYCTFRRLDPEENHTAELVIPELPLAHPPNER

B2: 3F2-hIL7-3A (antibody)
heavy: QVQLQESGPGLVKPSETLSLTCTVSGYSITSGYNWHWIRQFPGNGLEWMGYIHHSSITNYNPSLKSRITISRDTSKNQFSLKLSSVTAADTATYYCAREGYDYDWFAYWGQGTLVTVSSASTKGPSVFPLAPSSKSTSGGTAALGCLVKDYFPEPVTVSWNSGALTSGVHTFPAVLQSSGLYSLSSVVTVPSSSLGTQTYICNVNHKPSNTKVDKKVEPKSCDKTHTCPPCPAPELLGGPSVFLFPPKPKDTLMISRTPEVTCVVVDVSHEDPEVKFNWYVDGVEVHNAKTKPREEQYNSTYRVVSVLTVLHQDWLNGKEYKCKVSNKALPAPIEKTISKAKGQPREPQVYTLPPSRDEGGGGSGGGGSDCDIEGKDGKQYESVLMVSIDQLLDSMKEIGSNCLNNEFNFFKRHICDANKEGMFLFRAARKLRQFLKMNSTGDFDLHLLKVSEGTTILLNCTGQVKGRKPAALGEAQPTKSLEENKSLKEQKKLNDLCFLKRLLQEIKTCWNKILMGTKEHGGGGSGGGGSVSLTCLVKGFYPSDIAVEWESNGQPENNYKTTPPVLDSDGSFFLYSKLTVDKSRWQQGNVFSCSVMHEALHNHYTQKSLSLSPGK
light: DIVLTQSPDFQSVTPKEKVTITCRASQSISNNLHWYQQKPDESPKLLIKYASQSISGIPSRFSGSGSGTDFTLTINSVEAEDFAMYFCQQSKSWPFTFGQGTRLEIKRTVAAPSVFIFPPSDEQLKSGTASVVCLLNNFYPREAKVQWKVDNALQSGNSQESVTEQDSKDSTYSLSSTLTLSKADYEKHKVYACEVTHQGLSSPVTKSFNRGEC
notes: IgG1
Kd [1]: 0.493 nM
koff [1]: 0.000879 s⁻¹
kon [1]: 1.78e+06 M⁻¹ s⁻¹

B4: 3F2-hIL21-3A (antibody, IgG1)
heavy: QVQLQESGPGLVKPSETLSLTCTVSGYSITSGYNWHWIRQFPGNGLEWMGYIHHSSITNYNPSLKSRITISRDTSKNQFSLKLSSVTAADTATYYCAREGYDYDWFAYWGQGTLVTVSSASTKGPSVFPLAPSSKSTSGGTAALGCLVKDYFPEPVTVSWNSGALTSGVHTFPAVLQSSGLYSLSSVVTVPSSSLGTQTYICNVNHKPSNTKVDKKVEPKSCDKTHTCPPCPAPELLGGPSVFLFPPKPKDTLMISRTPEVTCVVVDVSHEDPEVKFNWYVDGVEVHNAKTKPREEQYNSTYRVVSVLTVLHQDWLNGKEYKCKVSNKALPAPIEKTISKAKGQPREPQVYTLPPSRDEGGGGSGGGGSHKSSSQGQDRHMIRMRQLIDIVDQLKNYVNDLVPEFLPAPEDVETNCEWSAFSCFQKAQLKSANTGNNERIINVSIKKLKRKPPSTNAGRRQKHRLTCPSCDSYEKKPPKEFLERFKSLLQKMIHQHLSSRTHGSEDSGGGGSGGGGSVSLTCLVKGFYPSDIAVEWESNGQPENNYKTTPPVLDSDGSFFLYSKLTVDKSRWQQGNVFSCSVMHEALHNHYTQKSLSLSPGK
light: B2 light
notes: IgG1
Kd [2]: 0.515 nM
koff [2]: 0.000613 s⁻¹
kon [2]: 1.19e+06 M⁻¹ s⁻¹

B6: 3F2-hIL21-3A-mIFNa4 (antibody, IgG1)
heavy: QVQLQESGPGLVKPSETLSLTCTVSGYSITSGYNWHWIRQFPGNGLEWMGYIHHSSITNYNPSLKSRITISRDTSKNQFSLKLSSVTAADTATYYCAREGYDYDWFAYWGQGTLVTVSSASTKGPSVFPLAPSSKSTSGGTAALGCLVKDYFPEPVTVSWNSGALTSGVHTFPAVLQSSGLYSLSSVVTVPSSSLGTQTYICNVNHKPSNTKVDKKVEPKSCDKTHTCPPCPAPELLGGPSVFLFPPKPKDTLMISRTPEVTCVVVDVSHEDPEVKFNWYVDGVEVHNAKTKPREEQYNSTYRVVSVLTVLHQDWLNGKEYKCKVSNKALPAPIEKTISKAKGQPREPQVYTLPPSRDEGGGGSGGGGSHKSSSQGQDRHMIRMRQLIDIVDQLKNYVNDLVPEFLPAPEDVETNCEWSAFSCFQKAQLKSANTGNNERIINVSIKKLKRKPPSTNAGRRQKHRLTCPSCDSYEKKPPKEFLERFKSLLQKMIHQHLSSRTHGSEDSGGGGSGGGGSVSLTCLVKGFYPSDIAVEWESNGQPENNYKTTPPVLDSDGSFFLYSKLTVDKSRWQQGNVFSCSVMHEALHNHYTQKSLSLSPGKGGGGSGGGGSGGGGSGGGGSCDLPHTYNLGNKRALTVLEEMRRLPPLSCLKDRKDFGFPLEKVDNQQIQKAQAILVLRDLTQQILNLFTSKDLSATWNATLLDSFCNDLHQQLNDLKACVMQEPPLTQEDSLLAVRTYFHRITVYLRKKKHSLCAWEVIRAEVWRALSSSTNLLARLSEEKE
light: B2 light
notes: IgG1
Kd [2]: 0.613 nM
koff [2]: 0.00072 s⁻¹
kon [2]: 1.17e+06 M⁻¹ s⁻¹

B7: 3F2-hIL7-3A-mIFNa4 (antibody, IgG1)
heavy: QVQLQESGPGLVKPSETLSLTCTVSGYSITSGYNWHWIRQFPGNGLEWMGYIHHSSITNYNPSLKSRITISRDTSKNQFSLKLSSVTAADTATYYCAREGYDYDWFAYWGQGTLVTVSSASTKGPSVFPLAPSSKSTSGGTAALGCLVKDYFPEPVTVSWNSGALTSGVHTFPAVLQSSGLYSLSSVVTVPSSSLGTQTYICNVNHKPSNTKVDKKVEPKSCDKTHTCPPCPAPELLGGPSVFLFPPKPKDTLMISRTPEVTCVVVDVSHEDPEVKFNWYVDGVEVHNAKTKPREEQYNSTYRVVSVLTVLHQDWLNGKEYKCKVSNKALPAPIEKTISKAKGQPREPQVYTLPPSRDEGGGGSGGGGSDCDIEGKDGKQYESVLMVSIDQLLDSMKEIGSNCLNNEFNFFKRHICDANKEGMFLFRAARKLRQFLKMNSTGDFDLHLLKVSEGTTILLNCTGQVKGRKPAALGEAQPTKSLEENKSLKEQKKLNDLCFLKRLLQEIKTCWNKILMGTKEHGGGGSGGGGSVSLTCLVKGFYPSDIAVEWESNGQPENNYKTTPPVLDSDGSFFLYSKLTVDKSRWQQGNVFSCSVMHEALHNHYTQKSLSLSPGKGGGGSGGGGSGGGGSGGGGSCDLPHTYNLGNKRALTVLEEMRRLPPLSCLKDRKDFGFPLEKVDNQQIQKAQAILVLRDLTQQILNLFTSKDLSATWNATLLDSFCNDLHQQLNDLKACVMQEPPLTQEDSLLAVRTYFHRITVYLRKKKHSLCAWEVIRAEVWRALSSSTNLLARLSEEKE
light: B2 light
notes: IgG1
Kd [1]: 0.685 nM
koff [1]: 0.000803 s⁻¹
kon [1]: 1.17e+06 M⁻¹ s⁻¹

The remaining lines, values ahead:

Kd [1]: 0.372 nM
koff [1]: 0.000652 s⁻¹
kon [1]: 1.75e+06 M⁻¹ s⁻¹
Kd [2]: 0.372 nM
koff [2]: 0.000652 s⁻¹
kon [2]: 1.75e+06 M⁻¹ s⁻¹
Kd [3]: 0.559 nM
koff [3]: 0.0013 s⁻¹
kon [3]: 2.32e+06 M⁻¹ s⁻¹
B1: PDL1-3F2 (antibody, human IgG1, kappa)
heavy: not shown
light: B2 light
notes: also called PDL1-3F2-IgG1; PDL1-3F2 IgG1

Kd [4]: 58.5 nM
koff [4]: 0.00335 s⁻¹
kon [4]: 57300 M⁻¹ s⁻¹
Kd [3]: 0.382 nM
koff [3]: 0.000952 s⁻¹
kon [3]: 2.49e+06 M⁻¹ s⁻¹
B3: 3F2-mIL12-3A (antibody, IgG1)
heavy: QVQLQESGPGLVKPSETLSLTCTVSGYSITSGYNWHWIRQFPGNGLEWMGYIHHSSITNYNPSLKSRITISRDTSKNQFSLKLSSVTAADTATYYCAREGYDYDWFAYWGQGTLVTVSSASTKGPSVFPLAPSSKSTSGGTAALGCLVKDYFPEPVTVSWNSGALTSGVHTFPAVLQSSGLYSLSSVVTVPSSSLGTQTYICNVNHKPSNTKVDKKVEPKSCDKTHTCPPCPAPELLGGPSVFLFPPKPKDTLMISRTPEVTCVVVDVSHEDPEVKFNWYVDGVEVHNAKTKPREEQYNSTYRVVSVLTVLHQDWLNGKEYKCKVSNKALPAPIEKTISKAKGQPREPQVYTLPPSRDEGGGGSGGGGSVIPVSGPARCLSQSRNLLKTTDDMVKTAREKLKHYSCTAEDIDHEDITRDQTSTLKTCLPLELHKNESCLATRETSSTTRGSCLPPQKTSLMMTLCLGSIYEDLKMYQTEFQAINAALQNHNHQQIILDKGMLVAIDELMQSLNHNGETLRQKPPVGEADPYRVKMKLCILLHAFSTRVVTINRVMGYLSSAGGGGSGGGGSVSLTCLVKGFYPSDIAVEWESNGQPENNYKTTPPVLDSDGSFFLYSKLTVDKSRWQQGNVFSCSVMHEALHNHYTQKSLSLSPGK
light: B2 light
chain: MWELEKDVYVVEVDWTPDAPGETVNLTCDTPEEDDITWTSDQRHGVIGSGKTLTITVKEFLDAGQYTCHKGGETLSHSHLLLHKKENGIWSTEILKNFKNKTFLKCEAPNYSGRFTCSWLVQRNMDLKFNIKSSSSSPDSRAVTCGMASLSAEKVTLDQRDYEKYSVSCQEDVTCPTAEETLPIELALEARQQNKYENYSTSFFIRDIIKPDPPKNLQMKPLKNSQVEVSWEYPDSWSTPHSYFSLKFFVRIQRKKEKMKETEEGCNQKGAFLVEKTSTEVQCKGGNVCVQAQDRYYNSSCSKWACVPCRVRS
notes: IgG1; IL12b co-expressed; also called 3F2-mIL12-3A-IgG1

Kd [4]: 56.5 nM
koff [4]: 0.00299 s⁻¹
kon [4]: 52900 M⁻¹ s⁻¹
Kd [3]: 0.396 nM
koff [3]: 0.000922 s⁻¹
kon [3]: 2.33e+06 M⁻¹ s⁻¹
B5: 3F2-mIL12-3A-mIFNa4 (antibody, IgG1)
heavy: QVQLQESGPGLVKPSETLSLTCTVSGYSITSGYNWHWIRQFPGNGLEWMGYIHHSSITNYNPSLKSRITISRDTSKNQFSLKLSSVTAADTATYYCAREGYDYDWFAYWGQGTLVTVSSASTKGPSVFPLAPSSKSTSGGTAALGCLVKDYFPEPVTVSWNSGALTSGVHTFPAVLQSSGLYSLSSVVTVPSSSLGTQTYICNVNHKPSNTKVDKKVEPKSCDKTHTCPPCPAPELLGGPSVFLFPPKPKDTLMISRTPEVTCVVVDVSHEDPEVKFNWYVDGVEVHNAKTKPREEQYNSTYRVVSVLTVLHQDWLNGKEYKCKVSNKALPAPIEKTISKAKGQPREPQVYTLPPSRDEGGGGSGGGGSVIPVSGPARCLSQSRNLLKTTDDMVKTAREKLKHYSCTAEDIDHEDITRDQTSTLKTCLPLELHKNESCLATRETSSTTRGSCLPPQKTSLMMTLCLGSIYEDLKMYQTEFQAINAALQNHNHQQIILDKGMLVAIDELMQSLNHNGETLRQKPPVGEADPYRVKMKLCILLHAFSTRVVTINRVMGYLSSAGGGGSGGGGSVSLTCLVKGFYPSDIAVEWESNGQPENNYKTTPPVLDSDGSFFLYSKLTVDKSRWQQGNVFSCSVMHEALHNHYTQKSLSLSPGKGGGGSGGGGSGGGGSGGGGSCDLPHTYNLGNKRALTVLEEMRRLPPLSCLKDRKDFGFPLEKVDNQQIQKAQAILVLRDLTQQILNLFTSKDLSATWNATLLDSFCNDLHQQLNDLKACVMQEPPLTQEDSLLAVRTYFHRITVYLRKKKHSLCAWEVIRAEVWRALSSSTNLLARLSEEKE
light: B2 light
chain: B3 chain
notes: IgG1; 3F2-mIL12-3A with mIFNa4 linked to each heavy chain C-terminus
